Biological target: N-terminal structural domain of human Nogo-B protein (hNogo-B-N), residues 1-185, with human Fc fragment (human) (UniProt Q9NQC3)
Assay: SPR

UniProt Q9NQC3, sequence (Q9NQC3 1-185): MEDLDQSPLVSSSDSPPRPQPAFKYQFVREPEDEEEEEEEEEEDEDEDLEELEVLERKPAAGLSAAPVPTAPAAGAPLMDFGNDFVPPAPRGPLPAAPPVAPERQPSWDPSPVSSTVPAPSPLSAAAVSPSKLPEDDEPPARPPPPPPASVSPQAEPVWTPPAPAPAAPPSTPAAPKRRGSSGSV

Substance “human proGCG protein (hproGCG) with C-terminal Strep-tag II (natural protein)” has a Kd of 1370 nM.

Source: paper PMC11315690
